In the supplement of paper PMC10724198:

Experiments:
Saccharomyces cerevisiae [1] = assay: protein stability index of tFT-peptide fusion in wild type (PSI (0-1 scale)); higher = more stable (slower turnover); conditions: genetic background: wild type
Saccharomyces cerevisiae [2] = assay: protein stability index of tFT-peptide fusion in deletion strain of DOA10 (PSI (0-1 scale)); higher = more stable (slower turnover)
Method: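 MPS profiling in S. cerevisiae of two library types built from selected 12-aa C-degron peptides (IN1, IN2, LN1, LN3, VN2, R1-R5, W1-W3, Atg1 and Rpa12 C-termini): saturation mutagenesis libraries and C-terminal +1 capping libraries (13 aa). Each peptide is fused to the C-terminus of a sfGFP-mCherry timer, after a GGGS linker. Cells are FACS-sorted into 8 mCherry/sfGFP bins and sequenced. PSI runs from 0 (unstable) to 1 (stable), measured once in wild type and in the das1Δ or doa10Δ background.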

Saccharomyces cerevisiae [3] = assay: protein stability index of tFT-peptide fusion in deletion strain of DAS1 (PSI (0-1 scale)); higher = more stable (slower turnover)
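For protein stability index of tFT-peptide fusion in deletion strain of DAS1 in this document: PSI is a weighted mean of each variant's read distribution over the sorted stability bins, computed only for variants having over 10 reads in total.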
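For protein stability index of tFT-peptide fusion in deletion strain of DOA10 in this document: PSI per variant is the weighted mean of its sequencing read distribution over the sorted stability bins, counting only variants with over 10 reads summed across bins.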
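For protein stability index of tFT-peptide fusion in wild type in this document: PSI derived as read-weighted mean over the 8 sorting bins, only variants exceeding 10 total reads kept, mCherry placed adjacent to the peptide and sfGFP distal.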

| Sequence | protein stability index (Saccharomyces cerevisiae [1]) | protein stability index (Saccharomyces cerevisiae [2]) | protein stability index (Saccharomyces cerevisiae [3]) |
| --- | --- | --- | --- |
| AATLPMCPLLLR | 0.377 | 0.684 |  |
| AIDLPMCPLLLR | 0.319 | 0.651 |  |
| AIQLPMCPLLLR | 0.213 | 0.649 |  |
| AITLEMCPLLLR | 0.372 | 0.667 |  |
| AITLHMCPLLLR | 0.271 | 0.62 |  |
| AITLPCCPLLLR | 0.236 | 0.659 |  |
| AITLPMCNLLLR | 0.29 | 0.683 |  |
| AITLPMCPFLLR | 0.624 | 0.661 |  |
| AITLPMCPHLLR | 0.645 | 0.687 |  |
| AITLPMCPLALR | 0.577 | 0.643 |  |
| AITLPMCPLELR | 0.641 | 0.682 |  |
| AITLPMCPLLCR | 0.238 | 0.265 |  |
| AITLPMCPLLIR | 0.219 | 0.427 |  |
| AITLPMCPLLLQ | 0.567 | 0.654 |  |
| AITLPMCPLLLRG | 0.31 | 0.55 |  |
| AITLPMCPLLLW | 0.436 | 0.646 |  |
| AITLPMCPLLLY | 0.404 | 0.517 |  |
| AITLPMCPLLNR | 0.644 | 0.671 |  |
| AIWLPMCPLLLR | 0.224 | 0.657 |  |
| CAVSLPILLFFR | 0.0547 | 0.627 |  |
| CLESLPILLFFR | 0.192 | 0.65 |  |
| CLGSLPILLFFR | 0.0966 | 0.628 |  |
| CLMSLPILLFFR | 0.0514 | 0.591 |  |

| Sequence | protein stability index (Saccharomyces cerevisiae [1]) | protein stability index (Saccharomyces cerevisiae [2]) | protein stability index (Saccharomyces cerevisiae [3]) |
| --- | --- | --- | --- |
| CLVDLPILLFFR | 0.0636 | 0.635 |  |
| CLVILPILLFFR | 0.0975 | 0.456 |  |
| CLVSDPILLFFR | 0.589 | 0.656 |  |
| CLVSEPILLFFR | 0.499 | 0.643 |  |
| CLVSLPIGLFFR | 0.101 | 0.674 |  |
| CLVSLPILEFFR | 0.637 | 0.672 |  |
| CLVSLPILLCFR | 0.0846 | 0.564 |  |
| CLVSLPILLFFN | 0.118 | 0.288 |  |
| CLVSLPILLFFRC | 0.0599 | 0.45 |  |
| CLVSLPILLFFRG | 0.0927 | 0.564 |  |
| CLVSLPILLFFRI | 0.0568 | 0.469 |  |
| CLVSLPILLFFRM | 0.0495 | 0.458 |  |
| CLVSLPILLFFS | 0.297 | 0.467 |  |
| CLVSLPILLFQR | 0.515 | 0.583 |  |
| CLVSLPILLNFR | 0.424 | 0.655 |  |
| CLVSLPILLWFR | 0.0579 | 0.567 |  |
| CLVSLPIWLFFR | 0.0275 | 0.58 |  |
| CLVSRPILLFFR | 0.115 | 0.638 |  |
| CLVTLPILLFFR | 0.048 | 0.576 |  |
| CLVYLPILLFFR | 0.0623 | 0.404 |  |
| CLYMCSVGCWFR | 0.276 | 0.584 |  |
| CTVSLPILLFFR | 0.0564 | 0.619 |  |
| DSLRVLLPLYFR | 0.33 | 0.676 |  |

| Sequence | protein stability index (Saccharomyces cerevisiae [1]) | protein stability index (Saccharomyces cerevisiae [2]) | protein stability index (Saccharomyces cerevisiae [3]) |
| --- | --- | --- | --- |
| GITLPMCPLLLR | 0.099 | 0.668 |  |
| PSLAASFWRVVT | 0.147 |  | 0.693 |
| PSLAASFWRYVG | 0.134 |  | 0.657 |
| PSLAQSFWRVVG | 0.188 |  | 0.699 |
| PSLIASFWRVVG | 0.12 |  | 0.672 |
| PSLQASFWRVVG | 0.111 |  | 0.633 |
| PSLYASFWRVVG | 0.0956 |  | 0.674 |
| RGIQPLPVQFLN | 0.112 |  | 0.581 |
| RLDQPLPVQFLN | 0.0831 |  | 0.808 |
| RLGQPLPVQFLN | 0.0875 |  | 0.611 |
| RLIQPIPVQFLN | 0.0323 |  | 0.597 |
| RLIQPKPVQFLN | 0.0691 |  | 0.586 |
| RLIQPLFVQFLN | 0.0762 |  | 0.621 |
| RLIQPLPDQFLN | 0.61 |  | 0.631 |
| RLIQPLPVCFLN | 0.0773 |  | 0.582 |
| RLIQPLPVGFLN | 0.322 |  | 0.587 |
| RLIQPLPVQFKN | 0.618 |  | 0.648 |
| RLIQPLPVQFLE | 0.633 |  | 0.743 |
| RLIQPLPVQFLNC | 0.486 |  | 0.635 |
| RLIQPLPVQFLNI | 0.627 |  | 0.644 |
| RLIQPLPVQFLNL | 0.636 |  | 0.656 |
| RLIQPLPVQFLNS | 0.385 |  | 0.658 |
| RLIQPLPVQFLNT | 0.614 |  | 0.639 |

| Sequence | protein stability index (Saccharomyces cerevisiae [1]) | protein stability index (Saccharomyces cerevisiae [2]) | protein stability index (Saccharomyces cerevisiae [3]) |
| --- | --- | --- | --- |
| RLIQPLPVQFLNV | 0.599 |  | 0.621 |
| RLIQPLPVQFLT | 0.223 |  | 0.59 |
| RLIQPLPVQFQN | 0.366 |  | 0.548 |
| RLIQPLPVQNLN | 0.447 |  | 0.645 |
| RLIQPLPVQPLN | 0.587 |  | 0.579 |
| RLIQPLPYQFLN | 0.0818 |  | 0.621 |
| RLIQPLRVQFLN | 0.06 |  | 0.593 |
| RLIQPLWVQFLN | 0.0634 |  | 0.569 |
| RLIQPMPVQFLN | 0.0562 |  | 0.607 |
| RLIQPPPVQFLN | 0.06 |  | 0.641 |
| RLIQPTPVQFLN | 0.192 |  | 0.563 |
| RLIQRLPVQFLN | 0.0385 |  | 0.646 |
| RLIQSLPVQFLN | 0.0478 |  | 0.574 |
| RLIQVLPVQFLN | 0.0583 |  | 0.611 |
| RLISPLPVQFLN | 0.0608 |  | 0.622 |
| RLIYPLPVQFLN | 0.0272 |  | 0.58 |
| RLWQPLPVQFLN | 0.069 |  | 0.608 |
| RYIQPLPVQFLN | 0.0617 |  | 0.564 |
| VAGAVGGWRLVG | 0.142 |  | 0.681 |
| VCGAVGGWRLVG | 0.118 |  | 0.686 |
| VIGAVGGWRLVG | 0.115 |  | 0.689 |
| VRDAVGGWRLVG | 0.172 |  | 0.654 |
| VRFAVGGWRLVG | 0.0977 |  | 0.678 |

| Sequence | protein stability index (Saccharomyces cerevisiae [1]) | protein stability index (Saccharomyces cerevisiae [2]) | protein stability index (Saccharomyces cerevisiae [3]) |
| --- | --- | --- | --- |
| VRGAFGGWRLVG | 0.144 |  | 0.668 |
| VRGAHGGWRLVG | 0.146 |  | 0.662 |
| VRGAMGGWRLVG | 0.202 |  | 0.746 |
| VRGASGGWRLVG | 0.172 |  | 0.674 |
| VRGAVCGWRLVG | 0.125 |  | 0.673 |
| VRGAVGGQRLVG | 0.643 |  | 0.677 |
| VRGAVGGVRLVG | 0.645 |  | 0.654 |
| VRGAVGGWCLVG | 0.441 |  | 0.674 |
| VRGAVGGWGLVG | 0.28 |  | 0.616 |
| VRGAVGGWPLVG | 0.596 |  | 0.692 |
| VRGAVGGWREVG | 0.504 |  | 0.654 |
| VRGAVGGWRLVGA | 0.524 |  | 0.692 |
| VRGAVGGWRLVGD | 0.646 |  | 0.694 |
| VRGAVGGWRLVGF | 0.666 |  | 0.693 |
| VRGAVGGWRLVGY | 0.638 |  | 0.682 |
| VRGAVGGWRLVK | 0.668 |  | 0.689 |
| VRGAVGGWRQVG | 0.189 |  | 0.677 |
| VRGAVGSWRLVG | 0.157 |  | 0.68 |
| VRGGVGGWRLVG | 0.206 |  | 0.683 |
| VRGSVGGWRLVG | 0.14 |  | 0.681 |
| VRGYVGGWRLVG | 0.174 |  | 0.69 |
| VRHAVGGWRLVG | 0.116 |  | 0.671 |
| YDKRNHLIKLLN | 0.138 |  | 0.581 |
